experiment: soluble on expression in E. coli; label from the status in PepcDB or PDB records

| Sequence | soluble on expression in E. coli |
| --- | --- |
| MGSSHHHHHHSSGLVPRGSHMSVRSLPAALRACARLQPHDPAFTFMDYEQDWDGVAITLTWSQLYRRTLNVAQELSRCGSTGDRVVISAPQGLEYVVAFLGALQAGRIAVPLSVPQGGVTDERSDSVLSDSSPVAILTTSSAVDDVVQHVARRPGESPPSIIEVDLLDLDAPNGYTFKEDEYPSTAYLQYTSGSTRTPAGVVMSHQNVRVNFEQLMSGYFADTDGIPPPNSALVSWLPFYHDMGLVIGICAPILGGYPAVLTSPVSFLQRPARWMHLMASDFHAFSAAPNFAFELAARRTTDDDMAGRDLGNILTILSGSERVQAATIKRFADRFARFNLQERVIRPSYGLAEATVYVATSKPGQPPETVDFDTESLSAGHAKPCAGGGATSLISYMLPRSPIVRIVDSDTCIECPDGTVGEIWVHGDNVANGYWQKPDESERTFGGKIVTPSPGTPEGPWLRTGDSGFVTDGKMFIIGR | soluble |
| MGSSHHHHHHSSGLVPRGSQSTSLYKKAGLMISAGDFKNGVTFELDGQIFQVIEFQHVKPGKGAAFVRTKLKNIVTGATIEKTFNPTDKMPKAHIERKDMQYLYNDGDLYYFMDTETFEQLPLGKDKIGDALKFVKENEIVKVLSHKGNVFGIEPPNFVELEVTDTEPGFKGDTATGATKPAIVETGASIKVPLFVNKGDIIRIDTRTGEYMERV | soluble |
| MGSSHHHHHHSSGRENLYFQGHMASQLTDAFARKFYYLRLSITDVCNFRCTYCLPDGYKPSGVTNKGFLTVDEIRRVTRAFARLGTEKVRLTGGEPSLRRDFTDIIAAVRENDAIRQIAVTTNGYRLERDVASWRDAGLTGINVSVDSLDARQFHAITGQDKFNQVMAGIDAAFEAGFEKVKVNTVLMRDVNHHQLDTFLNWIQHRPIQLRFIELMETGEGSELFRKHHISGQVLRDELLRRGWIHQLRQRSDGPAQVFCHPDYAGEIGLIMPYEKDFCATCNRLRVSSIGKLHLCLFGEGGVNLRDLLEDDTQQQALEARISAALREKKQTHFLHQNNTGITQNLSYIGG | soluble |
| MGSSHHHHHHSSGRENLYFQGHMHALSPLALAALIVATAPAFADEAKKPGTVFKDCKDCPEMVVLPAGSFTMGTPDDEVGRQPDEGPLHDVTFAKPFAISRYQVTAGELDAYLKATGVKLADGDTRPGRECIAGKPRYQQGPRQPAVCVDYNDVKNYAAWLSKKTGKRYRMLSEAEREYGARAGSAGPFPFPFDEGKEYSIAKHANTYGASDGYNFTSPVGSFPPNAFGVYDMHGNVYEWVADCWHDHYNGAPSDGSAWMEEKCELVQIRGNDWGEPPIFSRSGNRNNAAPSDRGDWIGFRVAREL | soluble |
| MGSSHHHHHHSSGRENLYFQGHMKPDAHQVKQFLLNLQDTICQQLTAVDGAEFVEDSWQREAGGGGRSRVLRNGGVFEQAGVNFSHVHGEAMPASATAHRPELAGRSFEAMGVSLVVHPHNPYVPTSHANVRFFIAEKPGADPVWWFGGGFDLTPFYGFEEDAIHWHRTARDLCLPFGEDVYPRYKKWCDEYFYLKHRNEQRGIGGLFFDDLNTPDFDRCFAFMQAVGKGYTDAYLPIVERRKAMAYGERERNFQLYRRGRYVEFNLVWDRGTLFGLQTGGRTESILMSMPPLVRWEYDYQPKDGSPEAALSEFIKVRDWV | soluble |
| MGSSHHHHHHSSGRENLYFQGHMNPNFLDFEQPIADLQAKIEELRLVGNDNALNISDEISRLQDKSKALTENIFGNLSSWQIAQLARHPKRPYTLDYIGYLFSDFEELHGDRHFADDPAIVGGVARLDGSPVMVIGHQKGREVREKVRRNFGMPRPEGYRKACRLMEMAERFKMPILTFIDTPGAYPGIDAEERGQSEAIAWNLRVMARLKTPIIATVIGEGGSGGALAIGVCDQLNMLQYSTYSVISPEGCASILWKTAEKAPEAAEAMGITAERLKGLGIVDKVIDEPLGGAHRDPASMAESIRGELLAQLKMLQGLEMGELLERRYDRLMSYGAP | soluble |
| MGSSHHHHHHSSGRENLYFQGHMNRTLYTLLFHLGLPLVALRLWWRARQAPAYAKRIGERFSLSLPEVPPGGIWVHAVSVGESIAAAPMVRALLERHPQLPVTVTCMTPTGSERIRALFGEQVRHCYLPYDLPWAAARFLDRVRPRLAVIMETELWPNHIHACAVRGIPVALANARLSERSARGYARFAGLTRPMLAELSWIAVQTEAEAERFRRLGARPECVSVTGSIKFDLRIDPQLPLAAAALREEWDATARPLWIAASTHAGEDEIVLAAHRRLLETRPDALLILVPRHPERFAGVHELCRREGFATVRRSGGEPVARATQVLLGDTMGELLFLYALADIAFVGGSLVPNGGHNLLEPAALGKPVFAGPHLFNFLDIAAQLRDAGALLEVTDAGELCDGLARLWAQPEVATAMATAGEKVLRNNQGALERLLAGLARLLGRGG | soluble |
| MGSTSSLYAAIDLGSNSFHMLVVREVAGSIQTLTRIKRKVRLAAGLNSENALSNEAMERGWQCLRLFAERLQDIPPSQIRVVATATLRLAVNAGDFIAKAQEILGCPVQVISGEEEARLIYQGVAHTTGGADQRLVVDIGGASTELVTGTGAQTTSLFSLSMGCVTWLERYFADRNLGQENFDAAEKAAREVLRPVADELRYHGWKVCVGASGTVQALQEIMMAQGMDERITLEKLQQLKQRAIHCGRLEELEIDGLTLERALVFPSGLAILIAIFTELNIQCMTLAGGALREGLVYGMLHLAVEQDIRSRTLRNIQRRFMIDIDQAQRVAKVAANFFDQVENEWHLEAISRDLLISACQLHEIGLSVDFKQAPQHAAYLVRNLDLPGFTPAQKKLLATLLLNQTNPVDLSSLHQQNAVPPRVAEQLCRLLRLAIIFASRRRDDLVPEMTLQANHELLTLTLPQGWLTQHPLGKEIIAQESQWQSYVHWPLEVH | soluble |
| MGSVITKETVLQENIYLKKLSGLEPVDDYDPFWNKLLSFSLKFDDDDEDTRIALESALDDHLQCLMYNTQTTGNFAAFIRLFLRRATELKTSEQCENKIYLWQTSNALLILRYIARFLTQRMTEKEFVRIFAKSHESTETESSSTSSSSDEEDDDEQKSENENNNGATKYIPIVFQNTAEEFTYELVSILINISVNETTLAIHVEAVRCLLTLLSSQLYNESIVNTSIVFRFFIDGSCAKHAASLTKTLLLNYLIHNSEYHMTVQKPQESIVFGLASSMWSMVQMATGIDSAEEEKKPPLTLGNLSILLLLNLSCHQPLNSSNPFKETLALFQNAQEVSTLPTQIVSFKIDYNGLYERLCATAGQEPPMLLLYMLLQANSGFRNYVLSRINLENLVVPVLRILHDGVATSNNSHHVYLALIVALILSEDDIFCKIIHETMIKDLGWLDSDFSVREISLGGLTTLVLVRAIQKNALKTRDRYLHTNCLAALANMSAFFKNLAPIVCQRLISLLDLLTKRHAKMVDHMRVSSQNDVADGQPINFHDDITALEEGIRTLLEIINSALCGGLRHNSHLIYNLLYHRALFDAYVQHPMFQDLLVNIAAVISHFSSKVIHVPAGDGSTMLQIIEKEANIWPTDRLAKFPELKFRYVEDEYTVDFFVPYVWRLSVQHSGIYFETSRIKIFNAQSIA | not soluble |
| MGTFREEGSVSSGTKQEFHTGKLVTTKGDKELLIDNEKVTSGHTTTTRRSCSKVITKTVTNADGRTETTKEVVKSEDGSDCGDADFDWHHTFPSRGNLDDFFHRDKDDFFTRSSHEFDGRTGLAPEFAALGESGSSSSKTSTHSKQFVSSSTTVNRGGSAIESKHF | soluble |
| MGTGSGGPIGVSPFHSRGALKGFVISGRWPDSTKEWAQLLMVAVRVASLPGLLSTTTVFGAREELPDEPEPGTVGLVLAEGTVFGESAIQPGYFADHQPPALLMLHPPSETTPSLPECTGAASGCVLLPGLPYLGLEHRAAWVEAEADGTITSMVSRVGVDPISHPDTAILAMLLAA | soluble |
| MGVILLLLIIVFSFSKEAYYCIQVLSSRDLSSAERAYRKLADYPHARIEKIGDYYTVRVGLWENKSKAKEYLSQVKSVYPGAFLRTCYYIEDRIVSINKGNVKKKVESFNGKELVLHGKNEKELICKAVKKVFEDIVSFEGKLTKREITFKSYFPYSVADAVNYALILNKKEGFIPVRCRVYKRDKITYVLELEGFKNGKVKGIKAVDYASVTYRNKVLRLKLIF | not soluble |
| MGVTLAKGGNVSLDKQAPNLTAVAVGLGWDARSTTGHEFDLDASALATGENKKVLSDQHFVFYNNLRSPDGSIQHEGDNLTGEGDGDDEVINVDLKAVPPNVTNIFFPVSIHEAELRGQNFGQVTNAFIRVVDRSTGNELVRYDLSEDASSETAMTFGELYRHNGEWKFRAIGQGYASGLSGIARDYGVNI | not soluble |
| MGYPVILHLRGRRAVVVGGGKVAARKIHGLLEAGAEIVMIAPEAEPELQALAAGGMIVWKKKRFDPDDLAEAFLVIAATNDRKVNEAVTQAASSGQLVNVVDDPERCDFHVPAVIRRGPLTIAVSTGGASPAVARRIRRELEEKYGEEYRPYLEFLQRARGIVLREVEDAEGRKRLFQALAADSFRQSGRWEEEFTRLLAKEKERNKEGERGR | soluble |
| MHAFPLTLDNRLAEALPLWRNLARTDRAPRRNIDLADWKADWRELIAALDRFSRSHGYRQPFAAQGHAALENAWAWGQAAENASTLLLKAIDRGLAGAELRSIYLETAALWLDYSRLLGAARDSLREQGEVDFETAPALAPRTGQYPFALQLLAMGVLLDAQELIPALVEEVLQFDTDRLLDYLGAAALGLTSASEETFHPRPFGQLRAFFEEADGSDAQALAPYLQSQYREFFQLSPKAQKKTRRLTGPYAWGWWAMEVSALGVLYGWDDGVLRASPHYLGDLVDYARARGDA | soluble |
| MHALVQLRGEVNMHTDIQDTLEMLNIHHVNHCTLVPETDAYRGMVAKVNDFVAFGEPSQETLETVLATRAEPLEGDADVDDEWVAEHTDYDDISGLAFALLSEETTLREQGLSPTLRLHPPRGGHDGVKHPVKEGGQLGKHDTEGIDDLLEAMR | soluble |
| MHDFVGFMNKISQINRDLDKYDHTINQVDSLHKRLLTEVNEEQASHLRHSLDNFVAQATDLQFKLKNEIKSAQRDGIHDTNKQAQAENSRQRFLKLIQDYRIVDSNYKEENKEQAKRQYMIIQPEATEDEVEAAISDVGGQQIFSQALLNANRRGEAKTALAEVQARHQELLKLEKSMAELTQLFNDMEELVIEQQ | soluble |
| MHDISSLTTRTKTLPPLRVGVGGPVGSGKTTLLEMVCKAMYPQFDLIAITNDIYTKEDQRLLTLSGALPPERILGVETGGCPHTAIREDASINLIAIDQMLEQFPDADIVFVESGGDNLAATFSPELSDLTLYIIDVASGEKIPRKGGPGITKSDLFIINKTDLAPYVGADLAVMEADTRRMRGDKPFVMCNLKTGDGLDQVIAFLKTEGLFRGLEHHHHHH | soluble |
| MHERLNFPKVELHLHLDGAVRFDTLIDLSQQKGIPLAGAKTVEELKKVLVTHEPANLSKVLEAFEIFLPVIRGDLAAIERVAYELCEDQHNNGVVYFEGRYSPHLLLCNDYPEVTAAHVVAAVKKGFDRGEKQFGIKARSILCCIRGLDKKFPQLILDLATDLKQLGVVAIDVAGSAHGADEQYEPEVVAAFQEAHKRGIHRTVHAGESGGPKEVIKAIEDMYAERIGHGYRVMRDEEMYLEHFVNSKNVHLEACPYSSVMTGAVPLDWKNHPIARWAKDDVNFSVSRDDPTCFDNSMLSELTLVHKQIGLDVHQLWKAQLNAARSCFLPEDEKAELVKRVEAGEPPRP | not soluble |
| MHHHHHHGTSLYKKAGSENLYFQGITTRTARQCGQADYGWLQARYTFSFGHYFDPKLLGYASLRVLNQEVLAPGAAFQPRTYPKVDILNVILDGEAEYRDSEGNHVQASAGEALLLSTQPGVSYSEHNLSKDKPLTRMQLWLDACPQRENPLIQKLALNMGKQQLIASPEGAMGSLQLRQQVWLHHIVLDKGESANFQLHGPRAYLQSIHGKFHALTHHEEKAALTCGDGAFIRDEANITLVADSPLRALLIDLPV | soluble |

From the DeepSol protein solubility set
